Data published in IntAct's records for PubMed 12612073.

B1: Progesterone receptor (Homo sapiens), P06401-1 (parent)
chain: MTELKAKGPRAPHVAGGPPSPEVGSPLLCRPAAGPFPGSQTSDTLPEVSAIPISLDGLLFPRPCQGQDPSDEKTQDQQSLSDVEGAYSRAEATRGAGGSSSSPPEKDSGLLDSVLDTLLAPSGPGQSQPSPPACEVTSSWCLFGPELPEDPPAAPATQRVLSPLMSRSGCKVGDSSGTAAAHKVLPRGLSPARQLLLPASESPHWSGAPVKPSPQAAAVEVEEEDGSESEESAGPLLKGKPRALGGAAAGGGAAAVPPGAAAGGVALVPKEDSRFSAPRVALVEQDAPMAPGRSPLATTVMDFIHVPILPLNHALLAARTRQLLEDESYDGGAGAASAFAPPRSSPCASSTPVAVGDFPDCAYPPDAEPKDDAYPLYSDFQPPALKIKEEEEGAEASARSPRSYLVAGANPAAFPDFPLGPPPPLPPRATPSRPGEAAVTAAPASASVSSASSSGSTLECILYKAEGAPPQQGPFAPPPCKAPGASGCLLPRDGLPSTSASAAAAGAAPALYPALGLNGLPQLGYQAAVLKEGLPQVYPPYLNYLRPDSEASQSPQYSFESLPQKICLICGDEASGCHYGVLTCGSCKVFFKRAMEGQHNYLCAGRNDCIVDKIRRKNCPACRLRKCCQAGMVLGGRKFKKFNKVRVVRALDAVALPQPVGVPNESQALSQRFTFSPGQDIQLIPPLINLLMSIEPDVIYAGHDNTKPDTSSSLLTSLNQLGERQLLSVVKWSKSLPGFRNLHIDDQITLIQYSWMSLMVFGLGWRSYKHVSGQMLYFAPDLILNEQRMKESSFYSLCLTMWQIPQEFVKLQVSQEEFLCMKVLLLLNTIPLEGLRSQTQFEEMRSSYIRELIKAIGLRQKGVVSSSQRFYQLTKLLDNLHDLVKQLHLYCLNTFIQSRALSVEFPEMMSEVIAAQLPKILAGMVKPLLFHKK
B2: Estrogen receptor (Homo sapiens), P03372 (parent)
chain: MTMTLHTKASGMALLHQIQGNELEPLNRPQLKIPLERPLGEVYLDSSKPAVYNYPEGAAYEFNAAAAANAQVYGQTGLPYGPGSEAAAFGSNGLGGFPPLNSVSPSPLMLLHPPPQLSPFLQPHGQQVPYYLENEPSGYTVREAGPPAFYRPNSDNRRQGGRERLASTNDKGSMAMESAKETRYCAVCNDYASGYHYGVWSCEGCKAFFKRSIQGHNDYMCPATNQCTIDKNRRKSCQACRLRKCYEVGMMKGGIRKDRRGGRMLKHKRQRDDGEGRGEVGSAGDMRAANLWPSPLMIKRSKKNSLALSLTADQMVSALLDAEPPILYSEYDPTRPFSEASMMGLLTNLADRELVHMINWAKRVPGFVDLTLHDQVHLLECAWLEILMIGLVWRSMEHPGKLLFAPNLLLDRNQGKCVEGMVEIFDMLLATSSRFRMMNLQGEEFVCLKSIILLNSGVYTFLSSTLKSLEEKDHIHRVLDKITDTLIHLMAKAGLTLQQQHQRLAQLLLILSHIRHMSNKGMEHLYSMKCKNVVPLYDLLLEMLDAHRLHAPTSRGGASVEETDQSHLATAGSTSSHSLQKYYITGEAEGFPATV

Variants of: B1
Details: with esr1_human ESR1, P03372

Question: With P422A;P423A;P426A as the variant, how does the “effect of a mutation on the interaction” value read?
Answer: Its value is “with no effect”.

Variants of: B1
Details: with src_human SRC

Question: With P422A;P423A;P426A as the variant, how does the “effect of a mutation on the interaction” value read?
Answer: Its value is “disrupting interaction strength”.

Variants of: B2
Details: with PGR

Question: Which “effect of a mutation on the interaction” value does the source give for Y537F here?
Answer: The value was “with no effect”.
